The values that follow come from patent US10919943B2, “Mutant proteins enabling agrochemical control of plant gene expression” (The Regents of the University of California, priority 2016, dated 2021).

Where a chain is given by its changes, count along the chain named. Numbers in names are those of the source.

The target of this test is T1, PYR1 (Arabidopsis thaliana, UniProt O49686).
T1 construct: expressed in transfected cells; host or cells: S. cerevisiae strain Y190
T1 sequence (O49686 1-191): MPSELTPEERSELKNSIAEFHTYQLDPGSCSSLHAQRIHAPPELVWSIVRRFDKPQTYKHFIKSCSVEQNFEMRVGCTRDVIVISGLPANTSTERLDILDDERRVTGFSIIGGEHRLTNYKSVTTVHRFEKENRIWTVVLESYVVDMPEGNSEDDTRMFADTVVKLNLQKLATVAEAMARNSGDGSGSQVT
Put plainly: Yeast two hybrid of pACT-HAB1 site saturation mutants with pBD-PYR1 on 10 μM ABA, β-galactosidase staining. In kind it is cell-based. Details: key: x: Mutations in HAB1 that disrupt HAB1 interaction with PYR1. The note with it: S. cerevisiae Y190, 10 μM ABA; dead = lack of detectable staining in comparison to wild type control. The method in brief:
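Read-out is β-galactosidase staining of chloroform-lysed Y190 colonies grown 2 days at 30 °C on SD (-Leu,-Trp) plus 10 μM ABA. Each pACT-HAB1 single-substitution mutant (N-terminally truncated by three residues) was paired with pBD-PYR1; absence of detectable staining relative to wild type scored as dead.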

B1: V393Q: HAB1 mutant (protein, listed as Arabidopsis thaliana)
chain: MEEMTPAVAMTLSLAANTMCESSPVEITQLKNVTDAADLLSDSENQSFCNGGTECTMEDVSELEEVGEQDLLKTLSDTRSGSSNVFDEDDVLSVVEDNSAVISEGLLVVDAGSELSLSNTAMEIDNGRVLATAIIVGESSIEQVPTAEVLIAGVNQDTNTSEVVIRLPDENSNHLVKGRSVYELDCIPLWGTVSIQGNRSEMEDAFAVSPHFLKLPIKMLMGDHEGMSPSLTHLTGHFFGVYDGHGGHKVADYCRDRLHFALAEEIERIKDELCKRNTGEGRQVQWDKVFTSCFLTVDGEIEGKIGRAVVGSSDKVLEAVASETVGSTAVVALVCSSHIVVSNCGDSRAVLFRGKEAMPLSVDHKPDREDEYARIENAGGKVIQWQGARVFGQLAMSRSIGDRYLKPYVIPEPEVTFMPRSREDECLILASDGLWDVMNNQEVCEIARRRILMWHKKNGAPPLAERGKGIDPACQAAADYLSMLALQKGSKDNISIIVIDLKAQRKFKTRT
B1: the “Mutations in HAB1 that disrupt HAB1 interaction with PYR1” value (“Mutations” below) is “x”.

B2: V393R: HAB1 mutant V393R, denoted HAB1^! (protein, listed as Arabidopsis thaliana)
chain: B1 chain with Q393R
For the molecule B2, the “Mutations” value is recorded as “x”.

B3: V393K: HAB1 mutant (protein, listed as Arabidopsis thaliana)
chain: B1 chain with Q393K
On to B3, for which the “Mutations” value was “x”.

B4: G392L: HAB1 mutant (protein, UniProt Q9CAJ0 23-511, looked up, variant G392L)
Protein phosphatase 2C 16: SPVEITQLKNVTDAADLLSDSENQSFCNGGTECTMEDVSELEEVGEQDLLKTLSDTRSGSSNVFDEDDVLSVVEDNSAVISEGLLVVDAGSELSLSNTAMEIDNGRVLATAIIVGESSIEQVPTAEVLIAGVNQDTNTSEVVIRLPDENSNHLVKGRSVYELDCIPLWGTVSIQGNRSEMEDAFAVSPHFLKLPIKMLMGDHEGMSPSLTHLTGHFFGVYDGHGGHKVADYCRDRLHFALAEEIERIKDELCKRNTGEGRQVQWDKVFTSCFLTVDGEIEGKIGRAVVGSSDKVLEAVASETVGSTAVVALVCSSHIVVSNCGDSRAVLFRGKEAMPLSVDHKPDREDEYARIENAGGKVIQWQGARVFLVLAMSRSIGDRYLKPYVIPEPEVTFMPRSREDECLILASDGLWDVMNNQEVCEIARRRILMWHKKNGAPPLAERGKGIDPACQAAADYLSMLALQKGSKDNISIIVIDLKAQRKFKTRT
Turning to B4, the “Mutations” value is “x”.

B5: G392Q: HAB1 mutant (protein, UniProt Q9CAJ0 23-511, looked up, variant G392Q)
Protein phosphatase 2C 16: B4 Protein phosphatase 2C 16 with L370Q
B5: the “Mutations” value is “x”.

B6: G392D: HAB1 mutant (protein, UniProt Q9CAJ0 23-511, looked up, variant G392D)
Protein phosphatase 2C 16: B4 Protein phosphatase 2C 16 with L370D
In the case of B6, the “Mutations” value is “x”.

B7: G392I: HAB1 mutant (protein, UniProt Q9CAJ0 23-511, looked up, variant G392I)
Protein phosphatase 2C 16: B4 Protein phosphatase 2C 16 with L370I
For B7, the “Mutations” value was “x”.

B8: G392M: HAB1 mutant (protein, UniProt Q9CAJ0 23-511, looked up, variant G392M)
Protein phosphatase 2C 16: B4 Protein phosphatase 2C 16 with L370M
Turning to B8, the “Mutations” value is recorded as “x”.

B9: G392N: HAB1 mutant (protein, UniProt Q9CAJ0 23-511, looked up, variant G392N)
Protein phosphatase 2C 16: B4 Protein phosphatase 2C 16 with L370N
Turning to B9, the “Mutations” value is listed as “x”.

B10: G392Y: HAB1 mutant (protein, UniProt Q9CAJ0 23-511, looked up, variant G392Y)
Protein phosphatase 2C 16: B4 Protein phosphatase 2C 16 with L370Y
For the molecule B10, the “Mutations” value is “x”.

B11: G392W: HAB1 mutant (protein, UniProt Q9CAJ0 23-511, looked up, variant G392W)
Protein phosphatase 2C 16: B4 Protein phosphatase 2C 16 with L370W
Consider B11, for which the “Mutations” value was “x”.

B12: Y404D: HAB1 mutant (protein, UniProt Q9CAJ0 23-511, looked up, variant Y404D)
Protein phosphatase 2C 16: B4 Protein phosphatase 2C 16 with L370G, Y382D
B12: the “Mutations” value was “x”.

B13: G392H: HAB1 mutant (protein, UniProt Q9CAJ0 23-511, looked up, variant G392H)
Protein phosphatase 2C 16: B4 Protein phosphatase 2C 16 with L370H
Regarding B13, the “Mutations” value is reported as “x”.

B14: Y404R: HAB1 mutant (protein, UniProt Q9CAJ0 23-511, looked up, variant Y404R)
Protein phosphatase 2C 16: B4 Protein phosphatase 2C 16 with L370G, Y382R
With B14, the “Mutations” value is “x”.

B15: Y404K: HAB1 mutant (protein, UniProt Q9CAJ0 23-511, looked up, variant Y404K)
Protein phosphatase 2C 16: B4 Protein phosphatase 2C 16 with L370G, Y382K
On to B15, for which the “Mutations” value is on record as “x”.

B16: Y404N: HAB1 mutant (protein, UniProt Q9CAJ0 23-511, looked up, variant Y404N)
Protein phosphatase 2C 16: B4 Protein phosphatase 2C 16 with L370G, Y382N
For B16, the “Mutations” value is given as “x”.

B17: G392P: HAB1 mutant (protein, UniProt Q9CAJ0 23-511, looked up, variant G392P)
Protein phosphatase 2C 16: B4 Protein phosphatase 2C 16 with L370P
Consider B17, for which the “Mutations” value was “x”.

B18: Y404T: HAB1 mutant (protein, UniProt Q9CAJ0 23-511, looked up, variant Y404T)
Protein phosphatase 2C 16: B4 Protein phosphatase 2C 16 with L370G, Y382T
Regarding B18, the “Mutations” value is given as “x”.

B19: Y404G: HAB1 mutant (protein, UniProt Q9CAJ0 23-511, looked up, variant Y404G)
Protein phosphatase 2C 16: B4 Protein phosphatase 2C 16 with L370G, Y382G
As for B19, the “Mutations” value is “x”.

B20: Y404E: HAB1 mutant (protein, UniProt Q9CAJ0 23-511, looked up, variant Y404E)
Protein phosphatase 2C 16: B4 Protein phosphatase 2C 16 with L370G, Y382E
B20: the “Mutations” value is listed as “x”.

B21: Y404S: HAB1 mutant (protein, UniProt Q9CAJ0 23-511, looked up, variant Y404S)
Protein phosphatase 2C 16: B4 Protein phosphatase 2C 16 with L370G, Y382S
Regarding B21, the “Mutations” value is on record as “x”.

B22: E201H: HAB1 mutant (protein, UniProt Q9CAJ0 23-511, looked up, variant E201H)
Protein phosphatase 2C 16: B4 Protein phosphatase 2C 16 with E179H, L370G
For B22, the “Mutations” value is “x”.

B23: G392V: HAB1 mutant (protein, UniProt Q9CAJ0 23-511, looked up, variant G392V)
Protein phosphatase 2C 16: B4 Protein phosphatase 2C 16 with L370V
Take B23: the “Mutations” value was “x”.

B24: G392T: HAB1 mutant (protein, UniProt Q9CAJ0 23-511, looked up, variant G392T)
Protein phosphatase 2C 16: B4 Protein phosphatase 2C 16 with L370T
In the case of B24, the “Mutations” value is on record as “x”.

B25: G392C: HAB1 mutant (protein, UniProt Q9CAJ0 23-511, looked up, variant G392C)
Protein phosphatase 2C 16: B4 Protein phosphatase 2C 16 with L370C
For B25, the “Mutations” value is recorded as “x”.

B26: Y404P: HAB1 mutant (protein, UniProt Q9CAJ0 23-511, looked up, variant Y404P)
Protein phosphatase 2C 16: B4 Protein phosphatase 2C 16 with L370G, Y382P
In the case of B26, the “Mutations” value was “x”.

B27: Y404Q: HAB1 mutant (protein, UniProt Q9CAJ0 23-511, looked up, variant Y404Q)
Protein phosphatase 2C 16: B4 Protein phosphatase 2C 16 with L370G, Y382Q
As for B27, the “Mutations” value is reported as “x”.

B28: G392R: HAB1 mutant (protein, UniProt Q9CAJ0 23-511, looked up, variant G392R)
Protein phosphatase 2C 16: B4 Protein phosphatase 2C 16 with L370R
In the case of B28, the “Mutations” value was “x”.

B29: G392E: HAB1 mutant (protein, UniProt Q9CAJ0 23-511, looked up, variant G392E)
Protein phosphatase 2C 16: B4 Protein phosphatase 2C 16 with L370E
With B29, the “Mutations” value was “x”.

B30: G392F: HAB1 mutant (protein, UniProt Q9CAJ0 23-511, looked up, variant G392F)
Protein phosphatase 2C 16: B4 Protein phosphatase 2C 16 with L370F
For B30, the “Mutations” value is on record as “x”.

B31: G392K: HAB1 mutant (protein, UniProt Q9CAJ0 23-511, looked up, variant G392K)
Protein phosphatase 2C 16: B4 Protein phosphatase 2C 16 with L370K
For the molecule B31, the “Mutations” value is given as “x”.

B32: E201K: HAB1 mutant (protein, UniProt Q9CAJ0 23-511, looked up, variant E201K)
Protein phosphatase 2C 16: B4 Protein phosphatase 2C 16 with E179K, L370G
As for B32, the “Mutations” value is on record as “x”.
